Measured values from patent US20260167699A1 (Chugai, published 2026).
Numbering of substitutions follows the chain as printed.

T1: FcγRIIa(R) (human, UniProt P12318 34-217)
T1 construct: extracellular domain; also called FcγRIIa R type; 2aR
T1 sequence: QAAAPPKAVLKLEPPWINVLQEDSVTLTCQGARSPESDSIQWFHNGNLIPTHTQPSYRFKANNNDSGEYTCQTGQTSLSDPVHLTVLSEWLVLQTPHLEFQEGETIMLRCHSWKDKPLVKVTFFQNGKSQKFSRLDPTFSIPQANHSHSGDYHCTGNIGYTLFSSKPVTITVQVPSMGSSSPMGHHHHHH

T2: FcγRIIa(H) (human, UniProt P12318 34-217)
T2 construct: extracellular domain; also called FcγRIIa H type; 2aH
T2 sequence: T1 sequence with R134H

T3: FcγRIIb (human, UniProt P31994 43-217)
T3 construct: extracellular domain; also called 2b
T3 sequence: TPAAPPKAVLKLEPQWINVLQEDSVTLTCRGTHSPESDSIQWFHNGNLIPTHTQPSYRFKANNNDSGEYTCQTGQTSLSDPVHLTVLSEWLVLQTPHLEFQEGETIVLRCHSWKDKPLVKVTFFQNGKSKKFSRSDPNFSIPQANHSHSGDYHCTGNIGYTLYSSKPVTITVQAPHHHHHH

B1: GpH7-A5/GpH7-B3 variant H268_19Q/GpL16-k0 (antibody, human IgG1, kappa)
heavy 1: not shown
heavy 2: not shown
light: DIVMTQSPLSLPVTPGEPASISCQASESLVHSNRNTYLHWYLQKPGQSPQLLIYKVSNRFSGVPDRFSGSGSGTDFTLKISRVEAEDVGVYYCSQNTHVPPTFGQGTKVEIERTVAAPSVFIFPPSDEQLKSGTASVVCLLNNFYPREAKVQWKVDNALQSGNSQESVTEQDSKDSTYSLSSTLTLSKADYEKHKVYACEVTHQGLSSPVTKSFNRGEC
notes: heterodimerized IgG1, one H chain mutated; also called He Ab
B2: GpH7-A5/GpH7-B3 variant L235_02A/GpL16-k0 (antibody, human IgG1, kappa)
heavy 1: not shown
heavy 2: not shown
light: B1 light
notes: as for B1
B3: GpH7-A5/GpH7-B3 variant L234_09D/GpL16-k0 (antibody, human IgG1, kappa)
heavy 1: not shown
heavy 2: not shown
light: B1 light
notes: as for B1
B4: GpH7-A5/GpH7-B3 variant L234_06M/GpL16-k0 (antibody, human IgG1, kappa)
heavy 1: not shown
heavy 2: not shown
light: B1 light
notes: as for B1
B5: GpH7-A5/GpH7-B3 variant L235_03V/GpL16-k0 (antibody, human IgG1, kappa)
heavy 1: not shown
heavy 2: not shown
light: B1 light
notes: as for B1
B6: GpH7-A5/GpH7-B3 variant L235_07I/GpL16-k0 (antibody, human IgG1, kappa)
heavy 1: not shown
heavy 2: not shown
light: B1 light
notes: as for B1
B7: GpH7-A5/GpH7-B3 variant L234_03V/GpL16-k0 (antibody, human IgG1, kappa)
heavy 1: not shown
heavy 2: not shown
light: B1 light
notes: as for B1
B8: GpH7-A5/GpH7-B3 variant L235_10E/GpL16-k0 (antibody, human IgG1, kappa)
heavy 1: not shown
heavy 2: not shown
light: B1 light
notes: as for B1
B9: GpH7-A5/GpH7-B3 variant L234_10E/GpL16-k0 (antibody, human IgG1, kappa)
heavy 1: not shown
heavy 2: not shown
light: B1 light
notes: as for B1
B10: GpH7-A5/GpH7-B3 variant L234_05P/GpL16-k0 (antibody, human IgG1, kappa)
heavy 1: not shown
heavy 2: not shown
light: B1 light
notes: as for B1
B11: GpH7-A5/GpH7-B3 variant H268_20W/GpL16-k0 (antibody, human IgG1, kappa)
heavy 1: not shown
heavy 2: not shown
light: B1 light
notes: as for B1
B12: GpH7-A5/GpH7-B3 variant L234_13S/GpL16-k0 (antibody, human IgG1, kappa)
heavy 1: not shown
heavy 2: not shown
light: B1 light
notes: as for B1
B13: GpH7-A5/GpH7-B3 variant L235_09D/GpL16-k0 (antibody, human IgG1, kappa)
heavy 1: not shown
heavy 2: not shown
light: B1 light
notes: as for B1
B14: GpH7-A5/GpH7-B3 variant L234_15Y/GpL16-k0 (antibody, human IgG1, kappa)
heavy 1: not shown
heavy 2: not shown
light: B1 light
notes: as for B1
B15: GpH7-A5/GpH7-B3 variant L235_14T/GpL16-k0 (antibody, human IgG1, kappa)
heavy 1: not shown
heavy 2: not shown
light: B1 light
notes: as for B1
B16: GpH7-A5/GpH7-B3 variant L234_02A/GpL16-k0 (antibody, human IgG1, kappa)
heavy 1: not shown
heavy 2: not shown
light: B1 light
notes: as for B1
B17: GpH7-A5/GpH7-B3 variant L234_19Q/GpL16-k0 (antibody, human IgG1, kappa)
heavy 1: not shown
heavy 2: not shown
light: B1 light
notes: as for B1
B18: GpH7-A5/GpH7-B3 variant L234_04F/GpL16-k0 (antibody, human IgG1, kappa)
heavy 1: not shown
heavy 2: not shown
light: B1 light
notes: as for B1
B19: GpH7-A5/GpH7-B3 variant L234_16H/GpL16-k0 (antibody, human IgG1, kappa)
heavy 1: not shown
heavy 2: not shown
light: B1 light
notes: as for B1
B20: GpH7-A5/GpH7-B3 variant L235_13S/GpL16-k0 (antibody, human IgG1, kappa)
heavy 1: not shown
heavy 2: not shown
light: B1 light
notes: as for B1
B21: GpH7-A5/GpH7-B3 variant L235_05P/GpL16-k0 (antibody, human IgG1, kappa)
heavy 1: not shown
heavy 2: not shown
light: B1 light
notes: as for B1
B22: GpH7-A5/GpH7-B3 variant L235_04F/GpL16-k0 (antibody, human IgG1, kappa)
heavy 1: not shown
heavy 2: not shown
light: B1 light
notes: as for B1
B23: GpH7-A5/GpH7-B3 variant L234_14T/GpL16-k0 (antibody, human IgG1, kappa)
heavy 1: not shown
heavy 2: not shown
light: B1 light
notes: as for B1
B24: GpH7-A5/GpH7-B3 variant L234_01G/GpL16-k0 (antibody, human IgG1, kappa)
heavy 1: not shown
heavy 2: not shown
light: B1 light
notes: as for B1
B25: GpH7-A5/GpH7-B3 variant L235_06M/GpL16-k0 (antibody, human IgG1, kappa)
heavy 1: not shown
heavy 2: not shown
light: B1 light
notes: as for B1
B26: GpH7-A5/GpH7-B3 variant L234_07I/GpL16-k0 (antibody, human IgG1, kappa)
heavy 1: not shown
heavy 2: not shown
light: B1 light
notes: as for B1
B27: GpH7-A5/GpH7-B3 variant L234_18N/GpL16-k0 (antibody, human IgG1, kappa)
heavy 1: not shown
heavy 2: not shown
light: B1 light
notes: as for B1
B28: GpH7-A5/GpH7-B3 variant L234_20W/GpL16-k0 (antibody, human IgG1, kappa)
heavy 1: not shown
heavy 2: not shown
light: B1 light
notes: as for B1

Tests used:
Assay in all cases: SPR (Biacore), binding relative to GpH7-A5/GpH7-B3/GpL16-k0 x100;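 further: surface plasmon resonance at 25 °C, antibody captured on a sensor chip and soluble FcγR flowed over it in HBS-EP+ running buffer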
FcγRIa = molecular target: T4, FcγRIa (human, UniProt P12314 16-292)
T4 construct: extracellular domain; also called 1a
T4 sequence (P12314 other isoform, or with tags, fused parts or gaps): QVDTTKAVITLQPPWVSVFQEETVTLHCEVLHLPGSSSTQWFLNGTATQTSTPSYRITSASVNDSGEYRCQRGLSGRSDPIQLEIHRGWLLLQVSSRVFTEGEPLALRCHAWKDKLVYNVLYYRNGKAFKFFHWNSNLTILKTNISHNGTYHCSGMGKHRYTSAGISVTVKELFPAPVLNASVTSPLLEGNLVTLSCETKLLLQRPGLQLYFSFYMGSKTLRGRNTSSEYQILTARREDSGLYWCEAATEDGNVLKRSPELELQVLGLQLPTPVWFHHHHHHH
Protocol: (§1) The antibody of interest was analyzed for its interaction with FcγR using a BiaCore™ T100, BiaCore™ A100, or BiaCore™ 4000 surface plasmon resonance system (GE Healthcare Japan Corp.). The running buffer used was HBS-EP+ (GE Healthcare Japan Corp.). The assay temperature was set to 25° C. The sensor chips used were: a chip prepared by immobilizing antigenic peptides onto Series S Sensor Chip CM5 (GE Healthcare Japan Corp.) by the amine coupling method; a chip prepared by immobilizing antigenic peptides biotinylated in advance onto Series S Sensor Chip SA (certified) (GE Healthcare Japan Corp.) through their interaction; a chip prepared by immobilizing protein L (ACTIGEN, BioVision, Inc.) onto Series S Sensor Chip CM5 (GE Healthcare Japan Corp.); and a chip prepared by immobilizing protein A/G (Thermo Fisher Scientific K.K.) onto Series S Sensor Chip CM5 (GE Healthcare Japan Corp.). The antibody of interest was captured onto any of these chips and allowed to interact with FcγR diluted with a running buffer. The antibody captured on the chip was washed off through the reaction of 10 mM glycine-HCl (pH 1.5) to regenerate the chip, which was repetitively used.

FcγRIIa(R) = molecular target: T1, FcγRIIa(R)
Protocol: as §1

FcγRIIa(H) = molecular target: T2, FcγRIIa(H)
Protocol: as §1

FcγRIIb = molecular target: T3, FcγRIIb
Protocol: as §1

Row | Binder | He/Con 1a (FcγRIa) [%] | He/Con 2aR (FcγRIIa(R)) [%] | He/Con 2aH (FcγRIIa(H)) [%] | He/Con 2b (FcγRIIb) [%]
1 | B1 | 104 | 128 | 104 | 140
2 | B2 | 95.2 | 86.6 | 77.6 | 72
3 | B3 | 101 | 142 | 100 | 172
4 | B4 | 107 | 109 | 96.4 | 89.6
5 | B5 | 97.8 | 83.4 | 94.9 | 75.8
6 | B6 | 103 | 102 | 99.5 | 100
7 | B7 | 108 | 99 | 94.4 | 83.4
8 | B8 | 96.9 | 98.7 | 80 | 90.8
9 | B9 | 104 | 130 | 98.2 | 134
10 | B10 | 103 | 104 | 104 | 83.2
11 | B11 | 103 | 122 | 96.9 | 117
12 | B12 | 100 | 82.6 | 89.4 | 67.7
13 | B13 | 87.6 | 117 | 84.3 | 121
14 | B14 | 103 | 113 | 134 | 110
15 | B15 | 91.6 | 70.6 | 79.5 | 53.4
16 | B16 | 101 | 92.5 | 90.1 | 74.1
17 | B17 | 98.8 | 87.2 | 88.1 | 68.9
18 | B18 | 104 | 121 | 133 | 114
19 | B19 | 97 | 83.5 | 97.1 | 67.8
20 | B20 | 93.5 | 75.9 | 73.5 | 55
21 | B21 | 97.8 | 74.6 | 64.2 | 62.4
22 | B22 | 100 | 132 | 123 | 135
23 | B23 | 102 | 90 | 86.8 | 71.4
24 | B24 | 99.2 | 72.4 | 84.1 | 57.8
25 | B25 | 101 | 106 | 96.3 | 92.4
26 | B26 | 106 | 110 | 101 | 92.3
27 | B27 | 97.3 | 98 | 100 | 92
28 | B28 | 102 | 125 | 126 | 131
